Results taken from US20220010004A1 (published 2022).

B1: monoclonal antibody DC8E8 (antibody, mouse IgG1, V domains shown)
VH: QVQLQQSGPELVKPGTSVKMPCKASGYIFTDYVISWVKQRTGQGLEWIGEIFPRSGSTYYNEKFKGKATLTADKSSNTAYMQLSSVTSEDSAVYFCARDYYGTSFAMDYWGQGTSVTVSS
VL: DIVMSQSPSSLAVSAGEKVTMSCKSSQSLLNSRTRKNYLAWYQQKPGQSPKLLIYWASTRESGVPDRFTGSGSGTDFTLTISSVQAEDLAVYYCKQSFYLRTFGGGTKLDIK
notes: Mouse IgG1 with kappa light chain, from hybridoma ATCC PTA-11994; also called mAb DC8E8

Experiments:
[1] = target: B1; assay: competition ELISA; competitor: coated tauΔ(1-150;392-441)/4R
[2] = target: B1; assay: competition ELISA against coated tauΔ(1-150;392-441)/4R
tauΔ(1-150; 392-441)/4R = target: T1, tauΔ(1-150; 392-441)/4R (human, UniProt P10636 468-708); assay: SPR (Biacore), DC8E8 captured, tau injected
T1 construct: Also the transgene of SHR72 rats; also called tau 151-391/4R; misdisordered tau
Protocol: (§1) A BIACORE3000 instrument with a CMS sensor chip (Biacore AB, Uppsala) was used for the SPR assays. Amine-coupling reagents (EDC, NHS, ethanolamine pH 8.5), P20 detergent, and 10 mM sodium acetate pH 5.0 were obtained from Biacore AB. These experiments were done at 25° C. in PBS pH 7.4 with 0.005% of P20 (PBS-P) as the running buffer.
(§2) Kinetic rate constants were approximated globally, maximal responses were fitted locally, and the bulk response was set to zero.

[3] = target: T2, human full-length tau isoform 2N4R (human, UniProt P10636 1-758); assay: SPR (Biacore), DC8E8 captured, tau injected
T2 construct: Recombinant, E. coli; also called tau 2N4R; tau441
Protocol: as §1, §2

tauΔ222-427 = tauΔ222-427 (human, UniProt P10636 1-758); assay: ELISA, coated tau (5 µg/ml), hybridoma supernate
Protocol: (§3) Microtiter plates were coated overnight at 37° C. with either recombinant tau proteins or with tau peptides (5 μg/ml in PBS, 50 μl/well). […] Bound monoclonal antibody was detected with sheep anti-mouse Ig HRP-conjugated (DAKO). The reaction was developed with orthophenylenediamine Solution as a peroxidase substrate and stopped with 50 μl of 2 M H₂SO₄. Absorbance was measured at 492 nm using a Multiscan MCC/340 ELISA reader (Labsystems). Readouts with an absorbance value of at least twice the value of the negative controls (PBS) were considered positive.

tauΔ306-400 = tauΔ306-400 (human, UniProt P10636 1-758); assay: ELISA, coated tau (5 µg/ml), hybridoma supernate
Protocol: as §3

tauΔ228-441 = target: T3, tauΔ228-441 (human, UniProt P10636 1-544); assay: ELISA, coated tau (5 µg/ml), hybridoma supernate
T3 construct: also called C-terminally truncated tau protein
Protocol: as §3

tauΔ300-312 = tauΔ300-312 (human, UniProt P10636 1-758); assay: ELISA, coated tau (5 µg/ml), hybridoma supernate
Protocol: as §3

tauΔ257-400 = tauΔ257-400 (human, UniProt P10636 1-758); assay: ELISA, coated tau (5 µg/ml), hybridoma supernate
Protocol: as §3

tauΔ137-441 = tauΔ137-441 (human, UniProt P10636 1-387); assay: ELISA, coated tau (5 µg/ml), hybridoma supernate
Protocol: as §3

tauΔ283-441 = tauΔ283-441 (human, UniProt P10636 1-599); assay: ELISA, coated tau (5 µg/ml), hybridoma supernate
Protocol: as §3

tau peptide 240-270 = target: T4, tau peptide 240-270 (human); assay: ELISA, coated peptide (5 µg/ml), hybridoma supernate
T4 construct: Synthetic; Built from 2N4R numbering
T4 peptide: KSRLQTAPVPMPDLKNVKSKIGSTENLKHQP
Protocol: as §3

tau peptide 270-300 = target: T5, tau peptide 270-300 (human); assay: as above
T5 construct: Synthetic; Built from 2N4R numbering
T5 peptide: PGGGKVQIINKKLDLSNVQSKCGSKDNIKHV
Protocol: as §3

tau peptide 301-330 = target: T6, tau peptide 301-330 (human); assay: as above
T6 construct: Synthetic; Built from 2N4R numbering
T6 peptide: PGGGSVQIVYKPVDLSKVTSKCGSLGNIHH
Protocol: as §3

Sequence of tauΔ222-427 (P10636 other isoform, or with tags, fused parts or gaps mutant): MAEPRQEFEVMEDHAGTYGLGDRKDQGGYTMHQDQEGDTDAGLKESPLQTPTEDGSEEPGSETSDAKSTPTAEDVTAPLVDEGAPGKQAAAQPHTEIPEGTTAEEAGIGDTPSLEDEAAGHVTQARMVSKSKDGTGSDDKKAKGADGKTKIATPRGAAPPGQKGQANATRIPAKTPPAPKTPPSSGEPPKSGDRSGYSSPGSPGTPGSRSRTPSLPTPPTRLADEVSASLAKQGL
T2 sequence (P10636 other isoform, or with tags, fused parts or gaps limits assumed): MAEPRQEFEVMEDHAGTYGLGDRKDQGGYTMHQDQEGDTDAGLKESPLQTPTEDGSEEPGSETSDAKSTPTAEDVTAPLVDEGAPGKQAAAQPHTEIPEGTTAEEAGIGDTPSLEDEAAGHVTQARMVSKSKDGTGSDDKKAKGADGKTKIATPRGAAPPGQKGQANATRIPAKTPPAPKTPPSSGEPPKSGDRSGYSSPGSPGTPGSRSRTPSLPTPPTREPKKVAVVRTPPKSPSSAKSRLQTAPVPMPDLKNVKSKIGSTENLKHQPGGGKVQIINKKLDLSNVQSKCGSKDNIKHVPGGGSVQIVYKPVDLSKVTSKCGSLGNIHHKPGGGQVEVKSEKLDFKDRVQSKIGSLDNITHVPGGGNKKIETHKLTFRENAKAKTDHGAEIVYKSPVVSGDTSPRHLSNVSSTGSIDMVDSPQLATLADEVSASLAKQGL
T1 sequence (P10636 other isoform, or with tags, fused parts or gaps mutant limits assumed): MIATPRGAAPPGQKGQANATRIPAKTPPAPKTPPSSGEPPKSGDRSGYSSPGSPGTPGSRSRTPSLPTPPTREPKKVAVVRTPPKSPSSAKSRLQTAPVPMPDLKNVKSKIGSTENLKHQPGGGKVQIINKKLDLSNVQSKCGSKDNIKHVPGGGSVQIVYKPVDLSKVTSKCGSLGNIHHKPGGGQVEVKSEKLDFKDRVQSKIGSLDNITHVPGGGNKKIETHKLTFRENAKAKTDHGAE
Sequence of tauΔ283-441 (P10636 other isoform, or with tags, fused parts or gaps mutant): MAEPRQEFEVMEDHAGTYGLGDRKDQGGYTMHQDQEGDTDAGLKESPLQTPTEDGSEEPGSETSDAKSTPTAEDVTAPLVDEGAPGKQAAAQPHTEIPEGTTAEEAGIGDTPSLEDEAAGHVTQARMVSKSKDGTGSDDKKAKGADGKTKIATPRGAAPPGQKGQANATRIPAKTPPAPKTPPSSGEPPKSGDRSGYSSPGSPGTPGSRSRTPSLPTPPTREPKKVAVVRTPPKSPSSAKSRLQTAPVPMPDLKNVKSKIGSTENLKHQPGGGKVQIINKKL
Sequence of tauΔ306-400 (P10636 other isoform, or with tags, fused parts or gaps mutant): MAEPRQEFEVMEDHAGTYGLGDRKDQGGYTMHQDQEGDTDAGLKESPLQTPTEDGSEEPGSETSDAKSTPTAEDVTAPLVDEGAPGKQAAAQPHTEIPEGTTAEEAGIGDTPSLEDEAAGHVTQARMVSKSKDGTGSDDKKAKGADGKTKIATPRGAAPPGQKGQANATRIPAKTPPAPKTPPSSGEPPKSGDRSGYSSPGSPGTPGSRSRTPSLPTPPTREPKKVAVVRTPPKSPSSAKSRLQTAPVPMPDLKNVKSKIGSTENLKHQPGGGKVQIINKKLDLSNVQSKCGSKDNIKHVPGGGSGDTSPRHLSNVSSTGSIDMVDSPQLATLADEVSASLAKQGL
Sequence of tauΔ300-312 (P10636 other isoform, or with tags, fused parts or gaps mutant): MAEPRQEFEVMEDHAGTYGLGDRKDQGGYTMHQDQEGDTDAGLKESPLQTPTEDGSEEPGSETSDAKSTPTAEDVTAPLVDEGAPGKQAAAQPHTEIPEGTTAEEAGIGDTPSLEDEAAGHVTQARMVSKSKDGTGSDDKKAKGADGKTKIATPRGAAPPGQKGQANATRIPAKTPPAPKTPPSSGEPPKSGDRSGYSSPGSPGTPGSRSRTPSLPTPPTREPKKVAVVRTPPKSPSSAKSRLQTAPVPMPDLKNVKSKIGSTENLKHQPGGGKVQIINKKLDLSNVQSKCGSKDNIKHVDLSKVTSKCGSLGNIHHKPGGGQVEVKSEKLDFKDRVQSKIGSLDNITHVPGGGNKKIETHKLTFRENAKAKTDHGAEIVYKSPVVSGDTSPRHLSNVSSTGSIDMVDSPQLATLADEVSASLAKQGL
Sequence of tauΔ257-400 (P10636 other isoform, or with tags, fused parts or gaps mutant): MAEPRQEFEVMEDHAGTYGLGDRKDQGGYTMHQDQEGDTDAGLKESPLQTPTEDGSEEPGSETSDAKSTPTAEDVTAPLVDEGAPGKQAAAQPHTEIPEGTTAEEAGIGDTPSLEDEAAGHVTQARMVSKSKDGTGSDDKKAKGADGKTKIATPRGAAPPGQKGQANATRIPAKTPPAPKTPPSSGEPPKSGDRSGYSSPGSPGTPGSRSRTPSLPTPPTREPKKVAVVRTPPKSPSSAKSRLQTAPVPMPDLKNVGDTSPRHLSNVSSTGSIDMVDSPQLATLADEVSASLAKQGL
T3 sequence (P10636 other isoform, or with tags, fused parts or gaps mutant): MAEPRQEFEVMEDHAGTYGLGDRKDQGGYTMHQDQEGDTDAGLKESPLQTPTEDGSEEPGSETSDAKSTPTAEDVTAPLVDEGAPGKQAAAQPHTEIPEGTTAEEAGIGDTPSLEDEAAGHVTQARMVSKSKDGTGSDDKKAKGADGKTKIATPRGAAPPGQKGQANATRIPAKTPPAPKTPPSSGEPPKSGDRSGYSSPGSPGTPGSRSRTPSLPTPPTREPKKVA
Sequence of tauΔ137-441 (P10636 other isoform, or with tags, fused parts or gaps mutant): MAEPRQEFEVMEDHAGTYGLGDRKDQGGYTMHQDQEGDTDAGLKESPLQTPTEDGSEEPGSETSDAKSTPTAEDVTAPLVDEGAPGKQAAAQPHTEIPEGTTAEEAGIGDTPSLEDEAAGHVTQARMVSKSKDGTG

## TENLKHQPGGGK [tau peptide TENLKHQPGGGK]
[1]
  binding result: binds

## KHVPGGGSV [peptide KHVPGGGSV]
[1]
  binding result: binds

## QPGGG [tau peptide QPGGG]
[2]
  binding result: no binding

## VPGGG [tau peptide VPGGG]
[2]
  binding result: no binding

## DNIAHVPGGGS (Alanine mutant of tau 295-305) [peptide DNIAHVPGGGS]
[1]
  binding result: binds

## HVPGGGSVQ [peptide HVPGGGSVQ]
[1]
  binding result: binds

## B1
tauΔ(1-150; 392-441)/4R
  fold lower kOFF of four-repeat tau species: 10 fold
[3]
  fold lower kOFF of four-repeat tau species: 10 fold
tauΔ222-427
  binding result: no binding
tauΔ306-400
  binding result: no binding
tauΔ228-441
  binding result: no binding
tauΔ300-312
  binding result: no binding
tauΔ257-400
  binding result: no binding
tauΔ137-441
  binding result: no binding
tauΔ283-441
  binding result: no binding
Tau peptide 240-270
  binding result: no binding
Tau peptide 270-300
  binding result: no binding
Tau peptide 301-330
  binding result: no binding

## SVFQHLPGGGSC (Designed peptide) [designer therapeutic epitope 2 SVFQHLPGGGSC]
[1]
  affinity for DC8E8 relative to tauΔ(1-150; 392-441)4R: > 10 fold

## IKHVPGGGS [peptide IKHVPGGGS]
[1]
  binding result: binds

## GWSIHSPGGGSC (Designed peptide) [designer therapeutic epitope 1 GWSIHSPGGGSC]
[1]
  binding result: binds

## KHVPGGG [tau peptide KHVPGGG]
[1]
  binding result: binds

## THVPGGG [tau peptide THVPGGG]
[1]
  binding result: binds

## KHQPGGG [tau peptide KHQPGGG]
[1]
  binding result: binds

## DNIKHAPGGGS (Alanine mutant of tau 295-305) [peptide DNIKHAPGGGS]
[1]
  binding result: binds

## DNIKAVPGGGS (Alanine mutant (H299A) of tau 295-305) [peptide DNIKAVPGGGS]
[2]
  binding result: no binding (tested: 160 µM)

## DNIKHVPGGGSVQIVYKPV (also called 19-mer) [tau peptide DNIKHVPGGGSVQIVYKPV]
[1]
  binding result: binds

## ANIKHVPGGGS (Alanine mutant of tau 295-305) [peptide ANIKHVPGGGS]
[1]
  binding result: binds

## ENLKHQPGGGKVQIINKKLDLSNVQSKCGSKDNIKHVPGGGS (also called 42-mer) [tau peptide ENLKHQPGGGKVQIINKKLDLSNVQSKCGSKDNIKHVPGGGS]
[1]
  binding result: binds

## NIKHVPGGGS [peptide NIKHVPGGGS]
[1]
  binding result: binds

B2: peptide NIKAVPGGGS (peptide)
peptide: NIKAVPGGGS
notes: Tau-derived peptide with histidine 299 changed to alanine
[2]
  binding result: no binding (tested: 40 µM)

## HQPGGG [tau peptide HQPGGG]
[1]
  binding result: binds

## HVPGGG [tau peptide HVPGGG]
[1]
  binding result: binds

## HKPGGG [tau peptide HKPGGG]
[1]
  binding result: binds

## HHKPGGG [tau peptide HHKPGGG]
[1]
  binding result: binds

## HQPGG [tau peptide HQPGG]
[2]
  binding result: no binding

## HVPGG [tau peptide HVPGG]
[2]
  binding result: no binding

## DNAKHVPGGGS (Alanine mutant of tau 295-305) [peptide DNAKHVPGGGS]
[1]
  binding result: binds

## DAIKHVPGGGS (Alanine mutant of tau 295-305) [peptide DAIKHVPGGGS]
[1]
  binding result: binds
